Target: human serum albumin (HSA) (Homo sapiens, UniProt P02768 25-609)
Assay: graphene oxide fluorescence recovery (aptamer release from GO); GO-aptamer complex, PBS pH 7.4, HSA 0.001-1.5 mg/mL; LOD 0.203 ug/mL, no Kd; PBS pH 7.4, room temperature; 15 uL of 5 uM Cy5-H8 + 85 uL GO-PBS (15 uL of 5 mg/mL GO in 70 uL PBS) 5 min in the dark, then 100 uL HSA for 30 min; also artificial urine
Conditions: protein: commercial; label: 5'-Cy5

human serum albumin (HSA), sequence (P02768 25-609): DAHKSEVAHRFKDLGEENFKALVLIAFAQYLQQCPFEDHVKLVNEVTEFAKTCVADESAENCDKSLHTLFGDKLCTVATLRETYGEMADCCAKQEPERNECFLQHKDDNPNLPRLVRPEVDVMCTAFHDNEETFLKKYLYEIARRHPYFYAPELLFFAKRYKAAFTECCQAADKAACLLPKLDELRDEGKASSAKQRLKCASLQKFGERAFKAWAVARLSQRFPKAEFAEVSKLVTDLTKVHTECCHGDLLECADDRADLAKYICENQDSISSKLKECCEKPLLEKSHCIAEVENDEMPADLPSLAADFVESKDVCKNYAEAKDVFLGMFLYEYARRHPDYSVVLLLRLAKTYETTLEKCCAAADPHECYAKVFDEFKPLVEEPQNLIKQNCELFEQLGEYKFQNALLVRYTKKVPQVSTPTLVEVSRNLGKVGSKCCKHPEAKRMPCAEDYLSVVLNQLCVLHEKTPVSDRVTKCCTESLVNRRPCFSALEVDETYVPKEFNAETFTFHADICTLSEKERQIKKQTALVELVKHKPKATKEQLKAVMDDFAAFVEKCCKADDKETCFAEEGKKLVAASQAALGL

B1: H8 albumin aptamer (ssDNA)
DNA: ATACCAGCTTATTCAATTCCCCCGGCTTTGGTTTAGAGGTAGTTGCTCATTACTTGTACGCTCCGGATGAGATAGTAAGTGCAATCT
binding result: binds

— paper PMC10526137, “Development of a High-Accuracy, Low-Cost, and Portable Fluorometer with Smartphone Application for the Detection of Urinary Albumin towards the Early Screening of Chronic Kidney and Renal Diseases”
